The assay deals with FITC-labeled amyloid-β (Aβ), aggregated into amyloid-derived diffusible ligands (ADDLs). In words: SEC; FITC-labeled Aβ aggregated by the Freir protocol (ADDLs); solvent PBS.

The term stoichiometry N denotes the number of molecules, sites or subunits per partner or assembly.

Regarding “FITC-labeled amyloid-β (Aβ), aggregated into amyloid-derived diffusible ligands (ADDLs) (peptide)”, the stoichiometry N amounted to 2.

The values above are taken from PMC6718452.
